Laboratory results reported in publication PMC6332095, “Purification and Partial Characterization of β-Glucosidase in Chayote (Sechium edule)” (Molecules, 2015).

Assays:
[1] = biological target: β-glucosidase from chayote (Sechium edule) (Sechium edule); assay: native gel or EMSA; native PAGE on 5%, 7.5%, 10% and 12.5% polyacrylamide gels, pH 8.3, Hedrick and Smith method; native mass 116 kDa compared with the 58 kDa subunit on SDS-PAGE
[2] = test system: T1, β-glucosidase in Sechium edule (Sebg; chayotase); assay: p-nitrophenol release, […] nm; Michaelis-Menten nonlinear fit; format: biochemical; settings: standard assay: sodium citrate 0.2 M, pH 5.0, 25 °C
T1 construct: native purification from fruit pulp (epicarp and mesocarp); homodimer 116 kDa, 58 kDa subunits; tryptic peptides MGFDAYR, FSIAWSR, WFENFLK, DFSEVCFK, EAMQAGVRVK, FGLTYIDYK, NNLK

Molecule	stoichiometry N [1]	Km [2] [mM]
β-glucosidase from chayote (Sechium edule) (enzyme)	2	–
O=[N+]([O-])c1ccc(O[C@@H]2O[C@H](CO)[C@@H](O)[C@H](O)[C@H]2O)cc1 [p-nitrophenyl-β-D-glucopyranoside]	–	4.88
